Target: RNF111 (Arkadia) (UniProt Q6ZNA4)
Test: proximity ligation assay (PLA)
Details: ARKL1 KO U2OS cells complemented with HA-ARKL1WT (n = 28), HA-ARKL1SIM* (n = 20) or vector (n = 17); antibodies against HA and RNF111; parent: est. 9.0; read off a plot

Sequence of UniProt Q6ZNA4 (Q6ZNA4 whole entry): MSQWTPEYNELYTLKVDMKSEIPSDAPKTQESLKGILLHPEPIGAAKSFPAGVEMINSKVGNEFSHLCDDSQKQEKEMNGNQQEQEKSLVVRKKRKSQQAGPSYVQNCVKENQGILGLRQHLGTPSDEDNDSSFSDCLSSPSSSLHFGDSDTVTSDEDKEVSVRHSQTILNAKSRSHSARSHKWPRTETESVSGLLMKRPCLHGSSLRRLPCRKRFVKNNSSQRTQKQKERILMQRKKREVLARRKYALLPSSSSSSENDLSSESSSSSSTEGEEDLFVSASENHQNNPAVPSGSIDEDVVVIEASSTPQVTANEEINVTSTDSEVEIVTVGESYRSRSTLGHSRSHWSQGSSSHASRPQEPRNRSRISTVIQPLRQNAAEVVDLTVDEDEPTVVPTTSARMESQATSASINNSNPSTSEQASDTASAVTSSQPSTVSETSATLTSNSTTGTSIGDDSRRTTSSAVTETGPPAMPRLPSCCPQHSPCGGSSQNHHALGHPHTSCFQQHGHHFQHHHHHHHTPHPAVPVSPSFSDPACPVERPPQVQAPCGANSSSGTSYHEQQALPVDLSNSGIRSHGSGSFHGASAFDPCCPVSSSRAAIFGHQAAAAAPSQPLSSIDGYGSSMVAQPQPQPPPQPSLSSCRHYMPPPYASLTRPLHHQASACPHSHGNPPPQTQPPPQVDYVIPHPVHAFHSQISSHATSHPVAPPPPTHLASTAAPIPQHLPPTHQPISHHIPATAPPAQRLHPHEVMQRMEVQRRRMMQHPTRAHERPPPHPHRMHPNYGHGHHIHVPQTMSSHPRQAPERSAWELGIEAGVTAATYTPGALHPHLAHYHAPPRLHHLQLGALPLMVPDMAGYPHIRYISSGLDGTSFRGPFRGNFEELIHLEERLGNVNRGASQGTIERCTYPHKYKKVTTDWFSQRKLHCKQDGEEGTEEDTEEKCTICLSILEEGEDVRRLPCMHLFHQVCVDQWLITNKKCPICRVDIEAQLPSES

response (PLA foci per cell): 1
Substance: HA-ARKL1 wild type (from UniProt Q96B23) SIM*
